{"source": "patent US20020081617A1", "about": "“Fluorescence and FRET based assays for biomolecules on beads” (priority 2000, published 2002)", "key": {"[1]": {"molecular_target": "non-biotinylated fluorescent 5-FLAG peptide (soluble)", "experiment": "centrifugation assay, spectrofluorimetry of residual supernatants; soluble fluorescent FLAG peptide on M2-bearing beads"}, "[2]": {"molecular_target": "biotinylated and fluorescein-tagged 5-FLAG peptide on streptavidin-coated beads", "experiment": "flow cytometry of bead-borne FLAG peptides incubated with TR-M1 mAbs, FRET quenching (FIG. 18)"}, "[3]": {"molecular_target": "non-biotinylated fluorescent 5-FLAG peptide (soluble)", "experiment": "FRET titration of TR-M1 into fluorescent FLAG peptide in solution, spectrofluorimetry, 1 mM Ca2+"}, "[4]": {"molecular_target": "biotinylated and fluorescein-tagged 5-FLAG peptide on streptavidin-coated beads", "experiment": "FRET quenching on 5-FLAG bearing beads, flow cytometry, buffer with Ca2+, sigmoidal analysis"}, "[5]": {"molecular_target": "biotinylated and fluorescein-tagged 5-FLAG peptide on streptavidin-coated beads", "experiment": "affinity micro-column of fluorescein FLAG peptide beads, real-time FRET, kinetic model fit"}, "[6]": {"molecular_target": "biotinylated and fluorescein-tagged 5-FLAG peptide on streptavidin-coated beads", "experiment": "FRET quenching on 5-FLAG bearing beads, flow cytometry, calcium-free buffer, sigmoidal analysis"}, "[7]": {"molecular_target": "biotinylated and fluorescein-tagged 5-FLAG peptide on streptavidin-coated beads", "experiment": "affinity micro-column of fluorescein FLAG peptide beads, FRET endpoints, sigmoidal dose-response curve"}, "[8]": {"molecular_target": "biotinylated and fluorescein-tagged 5-FLAG peptide on streptavidin-coated beads", "experiment": "FRET quenching of 5-FLAG on beads by TR-M1 (FIG. 8)"}, "[9]": {"molecular_target": "fluorescein biotin-bearing beads (Streptomyces avidinii, UniProt P22629)", "sequence (P22629 25-183)": "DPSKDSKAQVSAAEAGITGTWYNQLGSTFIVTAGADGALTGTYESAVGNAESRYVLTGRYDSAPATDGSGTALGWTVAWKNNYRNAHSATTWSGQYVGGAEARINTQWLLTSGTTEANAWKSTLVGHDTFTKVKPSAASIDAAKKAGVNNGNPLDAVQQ", "experiment": "Detection of native biotin via fluorescence unquenching of fluorescein biotin in affinity micro-column", "type": "binding", "conditions": "2 μL aliquot of 3 mM native biotin", "excerpt": "Streptavidin coated beads bearing ≈1×10^6 fluorophores/bead were packed into the micro-channel.\n(§1) Ostrich quenching is dependent on the length and structure of the ligand. […] Addition of native biotin recovers the original intensity under diffusion-limited kinetics. The extent of quenching and recovery on beads depends on site occupancy of the fluorescein biotin. […] The five-fold increase in intensity was consistent with a result from a flow cytometry measurement (data not shown). […] The magnitude of n2 relative to n1 is likely due to the disruption of the packing of beads upon initial contact with the plug of sample. It is likely that such disruption can be minimized through optimization of bead packing and sample injection procedures."}, "[10]": {"molecular_target": "streptavidin coated beads (Streptomyces avidinii, UniProt P22629)", "sequence (P22629 25-183)": "as above", "experiment": "Binding of biotinylated ligands to streptavidin-coated beads (centrifugation assays)", "conditions": "read-out: binding affinity (Kd) to streptavidin coated beads", "protocol": "Binding analysis of biotinylated biomolecules to streptavidin-bearing beads were performed. Centrifugation assays using paired spectrofluorimetric and flow cytometric analysis were carried out to compare and corroborate the flow cytometric data against the traditional spectroflurometric measurements.\nThe flow cytometric analysis used a Becton-Dickinson FACScan flow cytometer obtained from Sunnyvale, Calif. that interfaced to a Power PC Macintosh using the CellQuest software package. The FACScan is equipped with a 15 mW air-cooled argon ion laser. The laser output is fixed at 488 nm. It has been shown that the mean of the histogram is the quantity relevant to binding capacity. The average fluorescence of a single bead is converted to the number of fluorophores per bead on the basis of flow cytometric calibration beads obtained from Quantum 825 Flow Cytometry Standards Corporation, San Juan, PR. […] [formula]\nMCFLb mean channel fluorescence are the means of the histograms of the bound ligand Lb, corrected for nonspecific binding and standard calibration beads referred to as std, observed at similar detection settings. MESF stands for mean equivalent of soluble fluorophores and is the number of fluorescein molecules whose emission intensity is equal to MCFstd on each bead.\nThe magnitude of bound sites per bead were determined from centrifugation assays."}, "[11]": {"molecular_target": "streptavidin on 6.2 µm streptavidin-coated beads (UniProt P22629)", "sequence (P22629 37-163 limits assumed)": "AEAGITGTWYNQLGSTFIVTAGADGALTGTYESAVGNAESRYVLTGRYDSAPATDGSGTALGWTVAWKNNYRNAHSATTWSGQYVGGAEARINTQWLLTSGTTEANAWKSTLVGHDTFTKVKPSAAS", "experiment": "centrifugation assay with spectrofluorimetry and flow cytometry; biotinylated peptide on streptavidin-coated beads (binding through biotin)"}, "[12]": {"molecular_target": "Texas-Red labeled M1 anti-FLAG monoclonal antibody (IgG)", "experiment": "competition: TR-M1 pre-equilibrated with thousand-fold excess soluble non-fluorescent FLAG peptide, then passed over bead-borne fluorescein FLAG peptide; FRET"}, "[13]": {"molecular_target": "streptavidin (Streptomyces avidinii, UniProt P22629)", "sequence (P22629 25-183)": "as the sequence (P22629 25-183) above", "experiment": "Ostrich quenching of fluorescein biotin bound to streptavidin", "type": "binding", "conditions": "bound to excess soluble streptavidin", "excerpt": "Under certain circumstances, binding of fluorescent ligands to streptavidin is characterized by the quenching of fluorescence of bound relative to free ligands. Typically, this type of quenching referred to as “ostrich quenching” occurs when the fluorophore (e.g., fluorescein) moiety of a biotinylated ligand associates with the receptor pocket adjacent to the biotin-moiety bearing site. Such a method is described in the following reference: Buranda, T., Jones, G., Nolan, J., Keij, J., Lopez, G. P., and Sklar, L. A. (1999) Ligand Receptor Dynamics at Streptavidin Coated Particle Surfaces: A Flow Cytometric and Spectrofluorimetic Study J. Phys. Chem. B. 103, 3399-3410, the entire contents and disclosure of which is hereby incorporated by reference.\nas §1"}}, "note": "Several values for one entry are separate records, joined by “and”; a condition that tells them apart may be missing. Equal values may be shown once.", "data": [{"molecule": "biotinylated anti-FLAG M2 IgG on streptavidin-coated beads (antibody)", "values": [{"measurement": "Kd", "setting": "[1]", "result": 8, "unit": "nM"}]}, {"molecule": "Texas-Red labeled M1 anti-FLAG monoclonal antibody (IgG)", "values": [{"measurement": "Kd", "setting": "[2]", "result": 4, "unit": "nM"}, {"measurement": "Kd", "setting": "[3]", "result": 9, "unit": "nM"}, {"measurement": "Kd", "setting": "[4]", "result": 4, "unit": "nM"}, {"measurement": "Kd", "setting": "[5]", "result": 13.3, "unit": "nM"}, {"measurement": "koff", "setting": "[5]", "result": 0.0012, "unit": "s⁻¹"}, {"measurement": "kon", "setting": "[5]", "result": 90000, "unit": "M⁻¹ s⁻¹"}, {"measurement": "Kd", "setting": "[6]", "result": 37, "unit": "nM"}, {"measurement": "Kd", "setting": "[7]", "result": 10, "unit": "nM"}, {"measurement": "quenching of peptide fluorescence at saturation", "setting": "[8]", "result": "> 60", "unit": "%"}]}, {"molecule": "O=C(O)CCCC[C@@H]1SC[C@@H]2NC(=O)N[C@@H]21", "note": "[native biotin, biotin]", "values": [{"measurement": "increase in intensity of fluorescein biotin-bearing beads", "setting": "[9]", "result": "fivefold"}]}, {"molecule": "Biotinylated and fluorescein-tagged FLAG peptide (epitope DYKDDDDK) tethered to streptavidin-coated beads [5-FLAG]", "values": [{"measurement": "Kd", "setting": "[10]", "result": "0.3 nM and ~0.3 nM"}]}, {"molecule": "biotinylated and fluorescein-tagged 5-FLAG peptide on streptavidin-coated beads", "values": [{"measurement": "Kd", "setting": "[11]", "result": 0.3, "unit": "nM"}]}, {"molecule": "dark non-fluorescent FLAG peptide (soluble)", "values": [{"measurement": "FRET signal remaining with thousand fold excess of soluble peptide", "setting": "[12]", "result": "< 10", "unit": "%"}]}, {"molecule": "O=C(CCCCCNC(=O)CCCC[C@@H]1SC[C@@H]2NC(=O)N[C@@H]21)NCCCCCNC(=S)Nc1ccc2c(c1)C(=O)OC21c2ccc(O)cc2Oc2cc(O)ccc21", "note": "[fluorescein biotin]", "values": [{"measurement": "quenching of the fluorescence", "setting": "[13]", "result": "> 90", "unit": "%"}, {"measurement": "Kd", "setting": "[10]", "result": "~0.5", "unit": "nM"}]}]}
